Data as given in patent US20260125454A1 (SHANGHAI JUNSHI BIOSCIENCES, published 2026).
Bridges are numbered along the chain shown (N, C = ends). Where no end group is shown, it is not given here. The star is where a group is joined. Biotin = O=C1N[C@H]2[C@H](CS[C@H]2CCCCC(=O)*)N1

Columns and labels:
hCGRP(13-24) = biological target: T1, hCGRP(13-24) (human); test: BLI (Octet), biotin-peptide on SA probe
T1 construct: also called polypeptide 13-24
T1 peptide: Biotin-GGGGGAGLLSRSGGVVK
Experimental: (§1) The kinetic parameters of C245 Fab (Fab monomer fragments derived from antibody C245) binding to six synthetic human CGRP alpha polypeptide fragments (polypeptide 1-13, polypeptide 1-19, polypeptide 1-37, polypeptide 8-19, polypeptide 8-26, and polypeptide 13-24) were determined on an Octet RBD 96e system. Human CGRP synthetic polypeptide fragments were immobilized on the surfaces of SA bioprobes (Sartorius, Cat. No. 18-5019) at the following concentrations: 46.5 nM for hCGRP (1-13), 8.5 nM for CGRP (1-19), 15.5 nM for hCGRP (1-37), 8.5 nM for hCGRP (8-19), 15.5 nM for hCGRP (8-26), and 46.5 nM for hCGRP (13-24). The immobilized synthetic human CGRP polypeptide fragments were bound to 45 nM of C245 Fab and the binding dissociation curves were fitted using analytical software.

hCGRP(1-13) [1] = biological target: T2, hCGRP(1-13) (human, disulfide 7-12); test: BLI (Octet), biotin-peptide on SA probe, 45 nM Fab
T2 construct: also called polypeptide 1-13
T2 peptide: Biotin-GGGGGACDTATCVTHRLA
Experimental: as §1
(§2) The kinetic parameters of hu224 Fab (Fab monomer fragments derived from humanized antibody hu224) binding to four synthetic human CGRP alpha polypeptide fragments (polypeptide 1-13, polypeptide 1-19, polypeptide 1-37, and polypeptide 8-19) were determined on an Octet RBD 96e system. Human CGRP synthetic polypeptide fragments were immobilized on the surfaces of SA bioprobes (Sartorius, Cat. No. 18-5019) at the following concentrations: 8.5 nM for CGRP (1-19), 15.5 nM for hCGRP (1-37), 10 nM for hCGRP (8-19), and 15.5 nM for hCGRP (8-26). The immobilized synthetic human CGRP polypeptide fragments were bound to 45 nM of hu224 Fab and the binding dissociation curves were fitted using analytical software.

hCGRP(1-19) = biological target: T3, hCGRP(1-19) (human, N-terminal biotin; CYS residues at positions 7 and 12 theoretically form 1 intrachain disulfide bond); test: BLI (Octet), biotin-peptide on SA probe, 45 nM Fab
T3 construct: also called polypeptide 1-19
T3 peptide: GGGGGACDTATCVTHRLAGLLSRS
Experimental: as §1, §2

hCGRP(1-37) = biological target: T4, hCGRP(1-37) (human, N-terminal biotin; C-terminal phenylalanine amide (F-NH2); CYS residues at positions 7 and 12 theoretically form 1 intrachain disulfide bond); test: BLI (Octet), biotin-peptide on SA probe, 45 nM Fab
T4 construct: also called polypeptide 1-37; full-length hCGRP (1-37) polypeptide
T4 peptide: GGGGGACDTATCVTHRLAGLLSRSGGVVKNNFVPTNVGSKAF
Experimental: as §1, §2

hCGRP(8-19) = biological target: T5, hCGRP(8-19) (human); test: BLI (Octet), biotin-peptide on SA probe, 45 nM Fab
T5 construct: also called polypeptide 8-19
T5 peptide: Biotin-GGGGGVTHRLAGLLSRS
Experimental: as §1, §2

hCGRP(8-26) = biological target: T6, hCGRP(8-26) (human, N-terminal biotin); test: BLI (Octet), biotin-peptide on SA probe, 45 nM Fab
T6 construct: also called polypeptide 8-26
T6 peptide: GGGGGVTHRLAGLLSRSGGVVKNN
Experimental: as §1, §2

hCGRP(1-13) [2] = biological target: T2, hCGRP(1-13); test: BLI (Octet); hCGRP (1-13) against the fragments holding 8-19
Experimental: as §1

B1: C245 Fab (Fab, V domains shown)
VH: EVQLQQSGPELVKPGASMKISCKASGYSFTGYTMNWVKQSHGNNLEWIGLINPYIGNTHYNQKFKDKATFTVDRSSSTAYMALLSLTSEDSAVYYCARELDSGFDYWGQGTTLTVSS
VL: DVLMTQTPLSLPVSLGDQASLSCRSSQNIVHSNGDTYLEWYLQKPGQSPKLLIYKVSNRFSGVPDRFSGSGSGTDFTLKISRVEAEDLGVYYCYQGSHVPWTFGGGTKLEIK
notes: Fab of chimeric C245; also called Fab monomer fragments derived from antibody C245
binding result (hCGRP(13-24)): no binding (tested: 45 nM)
Kd (hCGRP(1-13) [1]): 24.4 nM
koff (hCGRP(1-13) [1]): 0.0172 s⁻¹
kon (hCGRP(1-13) [1]): 704000 M⁻¹ s⁻¹
Kd (hCGRP(1-19)): 0.0721 nM
koff (hCGRP(1-19)): 2.58e-05 s⁻¹
kon (hCGRP(1-19)): 357000 M⁻¹ s⁻¹
Kd (hCGRP(1-37)): 0.249 nM
koff (hCGRP(1-37)): 6.95e-05 s⁻¹
kon (hCGRP(1-37)): 280000 M⁻¹ s⁻¹
Kd (hCGRP(8-19)): 0.252 nM
koff (hCGRP(8-19)): 9.32e-05 s⁻¹
kon (hCGRP(8-19)): 360000 M⁻¹ s⁻¹
Kd (hCGRP(8-26)): 0.952 nM
koff (hCGRP(8-26)): 0.000316 s⁻¹
kon (hCGRP(8-26)): 332000 M⁻¹ s⁻¹
fold decrease in affinity (hCGRP(1-13) [2]): 100 fold
